The text below walks through data of article PMC11466968.

One test concerns the target BAG3 (UniProt O95817). Nature of the test: co-immunoprecipitation. Particulars: sites T287.
Another test deals with HRI (UniProt Q9BQI3). Description: co-immunoprecipitation with anti-FLAG antibody. To be noted: reference: wild type BAG3-FLAG; sites S173,S377,S386.

On to “CaMKIIδ (from UniProt Q13557) CaMKIIδ T287A”, for which the “binding against the reference” value with BAG3 (reference: wild type CaMKIIδ) was “weaker”.

In the case of “BAG3 (from UniProt O95817) BAG3 3A (S173A/S377A/S386A)”, in the test with HRI, the “binding against the reference” value is listed as “weaker”.

As for “CaMKIIβ (from UniProt Q13554) CaMKIIβ T287A”, the “binding against the reference” value with BAG3 (reference: wild type CaMKIIβ) is recorded as “weaker”.
